{"source": "patent US20260167698A1", "about": "(ONO PHARMACEUTICAL, published 2026)", "target": "T1, human Allergin-1L (expressed on CHO cells) (human, UniProt Q7Z6M3 20-343)", "T1 construct": "also called MILR1; human Allergin-1L-expressing CHO cell lines", "T1 sequence": "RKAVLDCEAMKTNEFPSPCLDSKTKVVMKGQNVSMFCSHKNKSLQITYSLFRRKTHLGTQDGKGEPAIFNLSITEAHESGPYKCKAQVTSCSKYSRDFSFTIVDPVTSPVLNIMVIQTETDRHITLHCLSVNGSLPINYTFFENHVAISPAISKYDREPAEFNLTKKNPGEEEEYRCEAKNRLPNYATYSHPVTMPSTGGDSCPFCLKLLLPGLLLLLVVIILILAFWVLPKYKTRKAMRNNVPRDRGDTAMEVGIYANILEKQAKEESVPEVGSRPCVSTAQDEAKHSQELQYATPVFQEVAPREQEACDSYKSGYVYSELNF", "assay": "flow cytometry, binding to Allergin-1L", "data": [{"binder": "anti-Allergin-1 bispecific antibody #15p_h_opt clone (bispecific antibody, human IgG1, kappa, L234A L235A, N297A, Morrison form: Fab Pro2281, scFv Pro2285) heavy: EVQLVESGGGLVQPGGSLRLSCAASGFSLTIYTITWVRQAPGKGLEWIGTINSYGNTYYSTWAKGRFTISRDNSKNTVYLQMNSLRAEDTAVYYCARGYVDSDWYLNIWGQGTLVTVSSASTKGPSVFPLAPSSKSTSGGTAALGCLVKDYFPEPVTVSWNSGALTSGVHTFPAVLQSSGLYSLSSVVTVPSSSLGTQTYICNVNHKPSNTKVDKRVEPKSCDKTHTCPPCPAPEAAGGPSVFLFPPKPKDTLMISRTPEVTCVVVDVSHEDPEVKFNWYVDGVEVHNAKTKPREEQYASTYRVVSVLTVLHQDWLNGKEYKCKVSNKALPAPIEKTISKAKGQPREPQVYTLPPSREEMTKNQVSLTCLVKGFYPSDIAVEWESNGQPENNYKTTPPVLDSDGSFFLYSKLTVDKSRWQQGNVFSCSVMHEALHNHYTQKSLSLSPGGGGGSGGGGSDIQMTQSPSSLSASVGDRVTITCQASESIGSLLAWYQQKPGKAPKLLIYRASTLESGVPSRFSGSGSGTDFTLTISSLQPEDFATYYCQSYHYSSSSSYAAFGCGTKVTVLGGGGGSGGGGSGGGGSGGGGSEVQLVESGGGLVQPGGSLRLSCAASGFSLSSHAMSWVRQAPGKCLEWIGTISTIDTTYYASWAKGRFTISRDNSKNTVYLQMNSLRAEDTAVYYCARLSELYTTNSYYSRWGQGTLVTVSS light: AIQMTQSPSSLSARVGDRVTITCQSSESVYDNNYLSWYQQKPGKAPKLLIYDASRLASGVPSRFSGSGSGTQFTLTISSLQPEDFATYYCLGGYDSSGWYAAFGQGTKVEIKRTVAAPSVFIFPPSDEQLKSGTASVVCLLNNFYPREAKVQWKVDNALQSGNSQESVTEQDSKDSTYSLSSTLTLSKADYEKHKVYACEVTHQGLSSPVTKSFNRGEC", "values": [{"measurement": "EC50", "result": 1.49, "unit": "nM"}]}]}
